Source: the DeepSol protein solubility set

Assay: soluble on expression in E. coli; label from the status in PepcDB or PDB records

In the case of “MFILKDVTYKDILHIPYLQIQKEKITCIIGESGSGKSTLLRMLNDLQSPTSGIIEYNGKLISDYPPIQLRRDVVMLGQTPPIFDGTIKDNLLMGLRLSEKPFPNDDILRSALKTISLEKNLEDNADSLSGGEKQRLAFARIVLMDPPVYLLDEPTSALDSDTERRVMKQFTTLAREKKKTVIFITHSQQLPEEIADDIIEISKANGATRKEVLSVEGRY”, the “soluble on expression in E. coli” value was “not soluble”.

With “MPTDIFSFKQFDIDQTGCAMRVGTDGVLLGAWAGEDAAGSIPQHCLDIGTGTGLIALMLAQRFPQARVQGIEIDPIAAECARANAAASPFSDRIVIASGDILDSSLESLIGNQRFDLIVSNPPFFKSSMHAPDRQRTMARHEETLPLEKLICRASELLSPQGRLALITPRDRLKDLRLYAATYRLVSSRLTEVRTLPHKEPKRLLSEWRPADTAIDRSPFTDTLIIHPATGYYSPEYVRLTEPFYTTSFRILAVG” the “soluble on expression in E. coli” value was “soluble”.

In the case of “AQPDIKFASKEYGVTIGESRIIYPLDAAGVMVSVKNTQDYPVLIQSRIYDENKEKESEDPFVVTPPLFRLDAKQQNSLRIAQAGGVFPRDKESLKWLCVKGIPPKDEDIWVDDATNKQKFNPDKDVGVFVQFAINNCIKLLVRPNELKGTPIQFAENLSWKVDGGKLIAENPSPFYMNIGELTFGGKSIPSHYIPPKSTWAFDLPKGLAGARNVSWRIINDQGGLDRLYSKNVTL”, the “soluble on expression in E. coli” value was “soluble”.

For “NKFNTWNDSRGNYWSDYEGSDENGDGIGDSAYAVNPEAGSMDYMPLMEYLHSSPVLPTARFTSDITEGFAPLSVRFKDFSENATSRLWMFGDGNTSDSPSPLHTFFNEGEYIVSLIVSNENDSDSASVTIRA”, the “soluble on expression in E. coli” value was “soluble”.

In the case of “MSLRRLLQVFFFCPKQIYSFKLYQSLIFYNYTDAFFSVKIVSTTNFGGHIMSTTIIGFPRLGEFRELKFTTEKYFRKEISEEELLAAAKDLRAKHWNIVKEKGITEIPSNDFSHYDNFLDAAFLFNVVPASVQNLDLSDLERYFALGRGYQGEKGDVRALPMKKWFNTNYHYIVPKFEKDTQVKLAGHKIFDEFQEAKELGLNTRPVLVGPFTFLQLSDFEEGVKADDFVDSFVAAYQEVFAKLADLGATRIQLDEAALVKDLTAEEKALFLNLYNKLLADKKGLEVLFQTYFGDVRDVYADLVNLPVDAIGLDFVEGKKTLELVKGGFPADKTLYVGIVNGKNIWRNNYEKSLTVLEQIPAENIVLTSSCSLLHVPFTTANEEFEPALLNHFAFAVEKLDEIRDLDAIRNGQGSEALAANKELFATERVGENAELRARIAGLTDADYTRLPAFAEREAIQEEAFKLPALPTTTIGSFPQTKEVRAKRLAYRKGELSQKEYDAFLAETIDEWIKWQEDIDFDVLVHGEFERNDMVEYFGQNLSGYLFSKNGWVQSYGMRGVKPPIIWGDVTRLNPITVKWSSYAQSRTNKPVKGMLTGPVTILNWSFPREDISIKDSTLQIALAIKDEVLDLEAAGVKIIQIDEAALREKLPLRRSDWYEDYLDWAIPAFRLVHSTVAPDTQIHTHMCYSEFTDIIPAIDNMDADVISFEASRSNLEILDELKAKNFQTEVGPGVYDIHSPRVPNEGEIDNTIEAILAKVPSKKVWINPDCGLKTRGIPETKESLIRLVEAAKAAREKLEGHHHHHH”, the “soluble on expression in E. coli” value was “soluble”.

In the case of “GPGSHQIRLLPLTDGFGDASMAGGTSAKIVSPMPGKVSKFLVNSGDFVEKGQALMIVEAMKMEHPVKALQDGQVSFLVKEGEVVGSDHVLATVVQKE”, the “soluble on expression in E. coli” value was “soluble”.

For “MLKINVKYQLKNTLIRINIDDTEPKIYAVRGPSGIGKTTVLNMIAGLRKADEAIIEVNGQLLTDTAKNVNVKIQQRRIGYLFQDYQLFPNMTVYKNITFMAEPSEHIDQLIQTLNIDHLMKQYPMTLSGGEAQRVALARALSTKPDLILLDEPFSSLDDTTKDESITLVKRIFNEWQIPIIFVTHSNYEAEQMAHEIITIG”, the “soluble on expression in E. coli” value was “not soluble”.

For “MGSDKIHHHHHHMQFLYNKQAGEEFIQLQGENFNHLKVRRVKENSELNLRNLQDNFLYNYTITNLTRNSCTLKFLNKKSQNIKQSELNLALAIIDIKILEKTLPFLNELGVKKLHLVFTNFSQRNFKIDLERFEKIIISSCEQCGRNTKMDLIIHQSTQEFVQKFPNAIMVDFQGEQQSHFDEKELYFIGPEGGFNNDERLLFNRKISLKSSNILKSQTAIIAIASKILL”, the “soluble on expression in E. coli” value was “not soluble”.

In the case of “MVRPEDFNSLELDNSLTDGETVHEMMAHKAGLTYNDFNILPGFINFGVHDVSLETNITKDLKIKAPLVSSPMDTVTESGMAIVMALYGGIGIIHGNFPKPEDQAAEVLKVKRFKQGYVMQPHCLSRDSTAFDMIQIKKKYGYTGAPVTEDGRVGSKLIGMVTSRDFDFITMDVAGQKGTPISDTNDVTPTTPITRIMVSVDQLHLGHINDAPELSQKKLKEHRLGKLPIVNDNGELCALLCRSDLLKARDYPMASYDSKGQLLCGAAVNTRGESQYTVDRVVEAGVDVLIIDSSNGSSTYQISMLRYIKEKHPHVQVIAGNVVTRAQAKLLIDQGADGLRIGMGSGSICITQDVMAVGRAQGTAVYDVARYANQRGIPIVADGGIRDVGYITKAISLGASAVMMGGLLAATTEAPGEYFWGPGGVRVKKYRGMGSLDAMEAHASSQDRYFTAHVFFSILSYF”, the “soluble on expression in E. coli” value was “not soluble”.

With “MSLTKIKNIKTKVYQWNGKTVPPKNNFCTNASDILYEKSDAMGSFRFHEWLICEIETDDGVFGIGNAALAPQIVKKTIDTYLKPLVVGEDPFDYAYIWEKMYRRTHAWGRRGIGMIAMSAIDIGIWDILGKITNKPVFKLLGGRTKEKIPVYASKLYSQPLNELQKEAETYKNQGFKMYKMSFGWGPKDGPEGMKKNIDLVEAVREVIGDDSDLMLESYMGWNLDYSKRIIPKLIKFNPRWLEEPVIADDIAGYSELNKMGVIPISGGEHEFNLFGFKQLLDLKAVSYIQYDTNRVGGITAAQKINALAESFQVPVVPHAGQMHNYHLTMANFNCPISEYFPVHDVEVGNELFYYIFEGDPEPKNGNINLDDNIPGLGLKISDKYKSDFNIIDEGHHHHHH” the “soluble on expression in E. coli” value was “soluble”.

In the case of “MGSDKIHHHHHHMSESAESVELIKLPVSQLTLGMFVSAIDKNDKGQLAIANAGQIKHKDAILKLAKSGIKFVWVDAERSAEHCGLKKKTTNDSQTDNRKAPVSRDKQQAQAKVMLTEAKDLIRKVLSETFEGKAIEVAPFEALADTMIESVMLDADALKCMSALRSKDAYLLEHSVNVAFLLVTFGKYLQLDRDMLRQMAVGGILHDIGKIKVDNKVLHKPGKLTPEEFEHMKLHQVYELEIMNETTGLSQISKDICLMHHEKLDGRGYPRGLKDDEIPRHGRMSCIVDIFDALTATRCYKEAMSPAAAFKILLSLTPFHLDQQLVYEFIRCIGIYPVGSLVELSDGRIGIVWASKDRDALHPIVKCFYSLKVKRYTDVAMVDLLKSELYIERGVSPSSLDIDPTPFY”, the “soluble on expression in E. coli” value was “not soluble”.

In the case of “MGSDKIHHHHHHMSYYLRSASLTNYVEVARAVGLDPHQFLRAAKISRDVLLDPDIRIPAKKVGRLLDDSARAAHVDDFGLRMAELRQVSNLGPLAFVVREQPTLRRALESMVRYMGVQNEALAMRMEESEGLLMIRLHILNDQPGTLRQATDLAVGVVYRLLSVCLGASWRPRSICFTHAAPASQATFQRVFGMPCVFNQDFDGIVCVAADLEAPLPSYDPVMAHQVKRYLGTLLAQANTTLPDKVRELVHVLLPSGMCSVDRVAQHLGVDRRTVHRRLAQENTSYSDIVNAARASLVVRYIDNRERPLSEVATLLGFSSLSAFSRWFGGQFGCSVSKWRLQHEGQGRNTA”, the “soluble on expression in E. coli” value was “not soluble”.

In the case of “MAHHHHHHGMTRTRSGSLAAGGLNWASLPLKLFAGGNAKFWHPADIDFTRDRADWEKLSDDERDYATRLCTQFIAGEEAVTEDIQPFMSAMRAEGRLADEMYLTQFAFEEAKHTQVFRMWLDAVGISEDLHRYLDDLPAYRQIFYAELPECLNALSADPSPAAQVRASVTYNHIVEGMLALTGYYAWHKICVERAILPGMQELVRRIGDDERRHMAWGTFTCRRHVAADDANWTVFETRMNELIPLALRLIEEGFALYGDQPPFDLSKDDFLQYSTDKGMRRFGTISNARGRPVAEIDVDYSPAQLEDTFADEDRRTLAAASA”, the “soluble on expression in E. coli” value was “soluble”.

With “KNASVITVGNEILKGRTVNTNAAFIGNFLTYHGYQVRRGFVVMDDLDEIGWAFRVALEVSDLVVSSGGLGPTFDDMTVEGFAKCIGQDLRIDEDALAMIKKKYGQADLTPQRLKMAKIPPSCRPIENPVGTAPGLICAVGGKKVIILPGVPKEMEALLKAMEKDIIIPD” the “soluble on expression in E. coli” value was “soluble”.

For “MAHHHHHHMRLTPLRCSAAAFHFTSLLLQGSGGGYRFFEDMYPKHDPAPRYRYYEDQMQSPTVRSLEPKKQMTETEKLHHLHDWKKDKEGLTPPPEFGWPEEWGPEPGEEGHSEWYRKNRMYMSYEEKSRYDLRVGVPVEKNSMRHQEMPYQKRMKAAYVNLEEKNPQYFDPRQRKYWAEYSYEDQRDTMAKARDDYIKEWLDEPGVTKENVAKKIGDYNGTAKNQNVKSVQRRPEWELAPRPEYDDD”, the “soluble on expression in E. coli” value was “not soluble”.

In the case of “WYCLISHGTRPKYWFDIEVYRQGYYPRCGQLRSWIARKDGIWFTRKYHSPPGHVLDWKIQ”, the “soluble on expression in E. coli” value was “not soluble”.

For “MAHHHHHHMCGVIEGLWTRGGRVFHRYVRPSDPRRISAAAAAVHGITWETVQNCSPWPVVARELVAYMALVGADAPVSASAQLEAAQLGGQRAVHLPPLVAHNASFDARFLEHHLRRCGYQIFWHPRYPLTCTRQWAQVAYPHLANNLDALCAFLSIDWAADRAANGHDALTDATLTALLFLQMCRRWMERFGRGE”, the “soluble on expression in E. coli” value was “not soluble”.

In the case of “MQEQIQEYAKRLKLSWIRENYREVEAANTEEYLLKLFEKEIEQREERKINLLFKAATLPNVSGKPFDWKDIQLGQGLSQQSLLDGEFIESKENMVFYGGVGAGKTYLSTLIGMNAIQKYGKRVKFYTIASLANELLEANDKGNLNKLFKKIEKLDLLILDELGYIPLHKHGAELLFQVISLCYEKRSIIITTNLQFGQWNHVFGDPILTEAVVDRLIHHSHLVIFGGDSNRMKKSFLLNNMLEHHHHHH”, the “soluble on expression in E. coli” value was “soluble”.

In the case of “VTRKSLLERCMEMEKEGYTGCLLSGGMDSRLKVPLDKFKDEIKAIKEKTKLKINAHVGFVDESDLEWLKYIDVVSLDFVGDNEVIKRVYKIDKKVEDYLRVLDLLTENGIRVAPHITIGLDFGKVHWEFKAIDILVNYPIDVLVLDVLIPTPGTEMANVPKVPVDEAIRVVKYAREKFSGELSIGCMRPFGEWRVKFDREAILAGVDRI”, the “soluble on expression in E. coli” value was “not soluble”.

In the case of “KPTAEVVPVNRGFHFQTNKVPSESDVFKHNYDLTFSLNFTNKSNDIYGTGWLFDWKGDEKALGIDGSFVPSITSNIDNSLLKDDQFTVYLATNLHVADALRNDQDYEPYKKDQNKQDFTENTKTEFFSLGKYLEGEQLKQYISKEENQSANQTDKALVSIQASNIPKTAYTATDFVDMNSYSYNNITTSLPGNYADFAVI”, the “soluble on expression in E. coli” value was “not soluble”.

For “MTKSVDTLLIPGPIILSGAVQKALDVPSLGHTSPEFVSIFQRVLKNTRAVFKSAAASKSQPFVLAGSGTLGWDIFASNFILSKAPNKNVLVVSTGTFSDRFADCLRSYGAQVDVVRPLKIGESVPLELITEKLSQNSYGAVTVTHVDTSTAVLSDLKAISQAIKQTSPETFFVVDAVCSIGCEEFEFDEWGVDFALTASQKAIGAPAGLSISLCSSRFMDYALNDSKNGHVHGYFSSLRRWTPIMENYEAGKGAYFATPPVQLINSLDVALKEILEEGLHKRWDLHREMSDWFKDSLVNGLQLTSVSRYPSNMSAHGLTAVYVADPPDVIAFLKSHGVVIAGGIHKDIGPKYIRIGHMGVTACNKNLPYMKNCFDLIKLALQRKK”, the “soluble on expression in E. coli” value was “soluble”.

In the case of “MGSDKIHHHHHHMNRFIIADASKCIGCRTCEVACVVSHQEHQDCASLTPHTFQPRIHVIKGVNVSTATACRQCEDAPCANVCPNGAISRDKGFVHVMQERCIGCKTCVVACPYGAMEVVVRPVIRHSGAGLNVVAEKAEANKCDLCFHRESGPACMEVCPTHALVCVDRNKLEQMNIEKRRRTALAW”, the “soluble on expression in E. coli” value was “not soluble”.
